Experimental findings from patent US20210301012A1 (UCB, published 2021) are described below.

Sequences and labels used below:
B11: gp80 (receptor, human, UniProt P08887 20-358, looked up)
chain: LAPRRCPAQEVARGVLTSLPGDSVTLTCPGVEPEDNATVHWVLRKPAAGSHPSRWAGMGRRLLLRSVQLHDSGNYSCYRAGRPAGTVHLLVDVPPEEPQLSCFRKSPLSNVVCEWGPRSTPSLTTKAVLLVRKFQNSPAEDFQEPCQYSQESQKFSCQLAVPEGDSSFYIVSMCVASSVGSKFSKTQTFQGCGILQPDPPANITVTAVARNPRWLSVTWQDPHSWNSSFYRLRFELRYRAERSKTFTTWMVKDLQHHCVIHDAWSGLRHVVQLRAQEEFGQGEWSEWSPEAMGTPWTESRSPPAENEVSTPMQALTTNKDDDNILFRDSANATSLPVQD
notes: Soluble gp80 as used in ELISA, MST, Octet, SEC and SPR; In part of the ELISA work the methods name gp80-hscFc (gp80 M1-P322, C211A, C277A, fused to single chain human IgG Fc); also called IL-6 receptor; CD126

Experiment [1] concerns the target T1, IL-6 (human, UniProt P05231 28-212).
T1 construct: IL-6 as used in ELISA, MST, Octet, SEC and SPR; also called interleukin-6; hIL-6
As to the kind of experiment: ELISA, plate coated with IL-6, absorbance 630 nm. As to the method: ELISA—IL-6, gp80 and FusionIL-6 used in ELISA to coat plates were diluted to a final concentration of […] in carbonate buffer (0.16% Na₂CO₃ and 0.3% NaHCO₃ in H₂O). Coated plates were incubated at 4° C. overnight. The following day, the plates were washed twice in PBST, blocked in PBS/5% BSA for 2 h at RT, and again washed twice in PBST. For preliminary screening, either supernatant from HEK cells or purified VHHs was added. Anti-llama-HRP or anti-His-HRP antibody was added for 1 h at RT. Afterwards the plates were washed twice with PBST and developed with TMB substrate. The reaction was stopped by adding NaF. […]

The experiment “gp80” has as its target B11. Nature of the experiment: ELISA, plate coated with gp80, absorbance 630 nm.
For experiment [2], the target named is T2, IL-6-gp80 complex (human, UniProt P05231 28-212; P08887 20-358).
T2 construct: Non-covalent transient heterodimer formed by mixing IL-6 and gp80
As to the kind of experiment: SPR (BIAcore T200, 25 C), VHH6 immobilised, IL-6 titrated (0-250 nM) with gp80 constant at 2 uM. As to the method: (§1) Quantitative SPR analysis was carried out using a BIAcore T200 (GE Healthcare). The binding measurements were performed at a flow rate of 100 μl/min. The protein of interest was injected for 180 s and the dissociation was monitored for 360 s. […] The sensor surface was regenerated with […] MgCl₂. Background subtraction binding curves were analyzed using the T200 evaluation software (version 1.0) following standard procedures. Due to the complexity of the interactions studied, the data analysis was limited to the most informative, in this case kd parameter, which was determined by fitting a single exponential decay model to dissociation data within 360 s range.

Experiment [3] concerns the target T2, IL-6-gp80 complex. As to the kind of experiment: SPR (BIAcore T200, 25 C), VHH6 immobilised, gp80 titrated (0-250 nM) with IL-6 constant at 2 uM. Here is the method: as §1
In experiment [4] the target is T2, IL-6-gp80 complex. As to the kind of experiment: MicroScale Thermophoresis, VHH6 titrated into IL-6-NT647 + gp80 (panel IL-6-NT647+gp80+VHH6). The source says:
(§2) (a) ELISA: FusionIL-6, IL-6 or gp80 were immobilized overnight on plates. […] (b) MicroScale Thermophoresis (MST): IL-6 and gp80 were labelled with NT647.

Experiment [5] addresses T2, IL-6-gp80 complex. As to the kind of experiment: MicroScale Thermophoresis, VHH6 titrated into gp80-NT647 + IL-6 (panel gp80-NT647+IL-6+VHH6).
Description: as §2

The target in experiment [6] is T2, IL-6-gp80 complex. Nature of the experiment: SPR (BIAcore 3000), His-tagged VHH captured from supernatant on Ni-NTA chip, equimolar IL-6 + gp80 (50 nM each) injected. As to the method: (§3) SPR analysis was performed using a BIAcore 3000 (GE Healthcare). […] An equimolar mixture of IL-6 and gp80 (50 nM each) was injected for 300 s at a flow rate of 10 μl/min followed by a dissociation phase of 300 s. At the end of each cycle the chip surface was regenerated by injection of 350 mM EDTA (2×10 μl).
(§4) To assess the contributions of the side chains to binding, single alanine substitutions at positions 27, 32, 74, 101 and 113, and double alanine substitutions at positions 27/32, 74/101 and 113/101 were generated. […] In a three-component system, it is not possible to calculate meaningful association rate constants. However, the dissociation rate constants, being concentration independent, were determined.

Experiment [7] concerns the target T2, IL-6-gp80 complex. The experiment is described as above. As to the method: as §3, §4
The source holds these as a separate data set.

Experiment [8] deals with T2, IL-6-gp80 complex. Nature of the experiment: SPR, VHH captured on Ni-NTA chip, IL-6 + gp80 injected; reference VHH6. Here is the method:
as §3, §4

Experiment [9] concerns the target T1, IL-6. As to the kind of experiment: SPR, IL-6 immobilised, gp80 injected, with VHH6 against without VHH6. The source says: For brevity, FIGS. 10a and b only report the SPR sensorgrams for IL-6 immobilization.

B1: VHH6 (VHH)
VHH: DVQFVESGGGSVHAGGSLRLNCATSGYIYSTYCMGWFRQAPGKEREGVAHIYTNSGRTYYADSVKGRFTISQDNAKNTVYLQMNSLKPEDTAIYYCAARPSIRCASFSATEYKDWGQGTQVTVSS
notes: Camel single domain antibody expressed in Expi-HEK cells; The His tag was used for capture in Octet and in the NTA-chip SPR; also called wtVHH6; VHH6-6His; not shown: C-terminal TEV site and 6His tag (VHH6-6His)
B1: the binding result with IL-6 [1] and in the experiment with gp80 was “no binding” in each case. Also, the koff with IL-6-gp80 complex [2] is 0.000309 s⁻¹; in the experiment with IL-6-gp80 complex [3], 0.000375 s⁻¹; with IL-6-gp80 complex [6], 0.00036 s⁻¹; with IL-6-gp80 complex [7], 0.00036 s⁻¹. The concentration for a half-maximal effect (EC50 (read off the curve)) in the experiment with IL-6-gp80 complex [4] was roughly 30 nM; with IL-6-gp80 complex [5] it was roughly 60 nM.

B2: VHH6 Y27A (VHH)
VHH: DVQFVESGGGSVHAGGSLRLNCATSGAIYSTYCMGWFRQAPGKEREGVAHIYTNSGRTYYADSVKGRFTISQDNAKNTVYLQMNSLKPEDTAIYYCAARPSIRCASFSATEYKDWGQGTQVTVSS
notes: Tested as ExpiHEK supernatant; not shown: C-terminal His tag (captured on NTA chip)
With B2, the “fold increase of dissociation rate against VHH6” value (“fold increase” below) with IL-6-gp80 complex [8] was found to be 1.9 fold. The koff in the experiment with IL-6-gp80 complex [6] was 0.0007 s⁻¹.

B3: VHH6 S101A (VHH)
VHH: DVQFVESGGGSVHAGGSLRLNCATSGYIYSTYCMGWFRQAPGKEREGVAHIYTNSGRTYYADSVKGRFTISQDNAKNTVYLQMNSLKPEDTAIYYCAARPAIRCASFSATEYKDWGQGTQVTVSS
notes: as for B2
For the molecule B3, the off-rate constant (koff) in the experiment with IL-6-gp80 complex [6] came out at 0.00039 s⁻¹.

B4: VHH6 Y32A (VHH)
VHH: DVQFVESGGGSVHAGGSLRLNCATSGYIYSTACMGWFRQAPGKEREGVAHIYTNSGRTYYADSVKGRFTISQDNAKNTVYLQMNSLKPEDTAIYYCAARPSIRCASFSATEYKDWGQGTQVTVSS
notes: as for B2
On to B4, for which, in the experiment with IL-6-gp80 complex [6], the dissociation rate constant (koff) is 0.0003 s⁻¹.

B5: VHH6 K113A S101A (VHH)
VHH: DVQFVESGGGSVHAGGSLRLNCATSGYIYSTYCMGWFRQAPGKEREGVAHIYTNSGRTYYADSVKGRFTISQDNAKNTVYLQMNSLKPEDTAIYYCAARPAIRCASFSATEYADWGQGTQVTVSS
notes: Tested as ExpiHEK supernatant; also called Ser101Ala/Lys113Ala; 113/101 double mutant; not shown: C-terminal His tag (captured on NTA chip)
In the case of B5, the “fold increase” value with IL-6-gp80 complex [8] is 4.3 fold. For the same molecule, in the experiment with IL-6-gp80 complex [7], the koff came out at 0.00143 s⁻¹.

B6: VHH6 N74A S101A (VHH)
VHH: DVQFVESGGGSVHAGGSLRLNCATSGYIYSTYCMGWFRQAPGKEREGVAHIYTNSGRTYYADSVKGRFTISQDAAKNTVYLQMNSLKPEDTAIYYCAARPAIRCASFSATEYKDWGQGTQVTVSS
notes: Tested as ExpiHEK supernatant; also called Asn74Ala/Ser101Ala; 74/101 double mutant; not shown: C-terminal His tag (captured on NTA chip)
Consider B6, for which, in the experiment with IL-6-gp80 complex [8], the “fold increase” value was 3.8 fold. Also, the koff in the experiment with IL-6-gp80 complex [7] worked out at 0.00135 s⁻¹.

B7: VHH6 K113S S101A (VHH)
VHH: DVQFVESGGGSVHAGGSLRLNCATSGYIYSTYCMGWFRQAPGKEREGVAHIYTNSGRTYYADSVKGRFTISQDNAKNTVYLQMNSLKPEDTAIYYCAARPAIRCASFSATEYSDWGQGTQVTVSS
notes: The text describes only alanine substitutions; not shown: C-terminal His tag (captured on NTA chip)
Regarding B7, the koff with IL-6-gp80 complex [7] came to 0.00164 s⁻¹.

B8: VHH6 K113A (VHH)
VHH: DVQFVESGGGSVHAGGSLRLNCATSGYIYSTYCMGWFRQAPGKEREGVAHIYTNSGRTYYADSVKGRFTISQDNAKNTVYLQMNSLKPEDTAIYYCAARPSIRCASFSATEYADWGQGTQVTVSS
notes: as for B2
Regarding B8, the koff in the experiment with IL-6-gp80 complex [6] turned out to be 0.00026 s⁻¹.

B9: VHH6 N74A (VHH)
VHH: DVQFVESGGGSVHAGGSLRLNCATSGYIYSTYCMGWFRQAPGKEREGVAHIYTNSGRTYYADSVKGRFTISQDAAKNTVYLQMNSLKPEDTAIYYCAARPSIRCASFSATEYKDWGQGTQVTVSS
notes: as for B2
Regarding B9, the koff in the experiment with IL-6-gp80 complex [6] was found to be 0.00015 s⁻¹.

B10: VHH6 Y27A Y32A (VHH)
VHH: DVQFVESGGGSVHAGGSLRLNCATSGAIYSTACMGWFRQAPGKEREGVAHIYTNSGRTYYADSVKGRFTISQDNAKNTVYLQMNSLKPEDTAIYYCAARPSIRCASFSATEYKDWGQGTQVTVSS
notes: Tested as ExpiHEK supernatant; also called 27/32 double mutant; not shown: C-terminal His tag (captured on NTA chip)
As for B10, the off-rate (koff) in the experiment with IL-6-gp80 complex [7] is 0.00043 s⁻¹. Take B11: the “fold reduction of koff by VHH6” value in the experiment with IL-6 [9] is 225 fold.
